In patent US20030099969A1 (published 2003):

T1: T7-tagged full length Ipaf
T1 chain: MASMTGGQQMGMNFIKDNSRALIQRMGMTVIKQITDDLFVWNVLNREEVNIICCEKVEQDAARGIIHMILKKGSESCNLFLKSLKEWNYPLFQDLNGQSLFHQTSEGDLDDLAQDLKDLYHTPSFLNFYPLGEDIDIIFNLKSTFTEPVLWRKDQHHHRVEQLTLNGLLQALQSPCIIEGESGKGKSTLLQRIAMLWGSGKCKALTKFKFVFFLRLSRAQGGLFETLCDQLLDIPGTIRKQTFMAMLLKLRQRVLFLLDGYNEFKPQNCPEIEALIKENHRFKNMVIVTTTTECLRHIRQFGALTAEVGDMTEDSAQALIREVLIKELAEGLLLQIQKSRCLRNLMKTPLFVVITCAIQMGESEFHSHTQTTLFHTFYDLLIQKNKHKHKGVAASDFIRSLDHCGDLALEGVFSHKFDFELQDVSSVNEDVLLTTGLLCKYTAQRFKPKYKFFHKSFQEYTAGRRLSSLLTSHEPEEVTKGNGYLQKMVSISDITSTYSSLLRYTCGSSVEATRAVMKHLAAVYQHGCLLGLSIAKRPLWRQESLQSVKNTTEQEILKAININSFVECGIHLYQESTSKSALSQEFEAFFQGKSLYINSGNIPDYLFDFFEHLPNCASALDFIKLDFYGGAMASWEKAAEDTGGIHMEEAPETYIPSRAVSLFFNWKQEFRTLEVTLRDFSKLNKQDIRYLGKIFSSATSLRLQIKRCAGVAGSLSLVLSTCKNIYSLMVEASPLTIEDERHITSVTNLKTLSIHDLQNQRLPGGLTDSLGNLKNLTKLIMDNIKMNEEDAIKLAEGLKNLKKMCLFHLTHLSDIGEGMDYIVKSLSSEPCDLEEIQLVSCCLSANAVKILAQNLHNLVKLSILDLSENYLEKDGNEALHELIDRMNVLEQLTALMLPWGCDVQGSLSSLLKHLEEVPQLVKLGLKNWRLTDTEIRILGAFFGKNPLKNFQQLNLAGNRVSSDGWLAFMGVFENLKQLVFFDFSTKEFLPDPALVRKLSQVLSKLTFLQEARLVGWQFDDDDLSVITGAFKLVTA

T2: Ipaf 1-661
T2 chain: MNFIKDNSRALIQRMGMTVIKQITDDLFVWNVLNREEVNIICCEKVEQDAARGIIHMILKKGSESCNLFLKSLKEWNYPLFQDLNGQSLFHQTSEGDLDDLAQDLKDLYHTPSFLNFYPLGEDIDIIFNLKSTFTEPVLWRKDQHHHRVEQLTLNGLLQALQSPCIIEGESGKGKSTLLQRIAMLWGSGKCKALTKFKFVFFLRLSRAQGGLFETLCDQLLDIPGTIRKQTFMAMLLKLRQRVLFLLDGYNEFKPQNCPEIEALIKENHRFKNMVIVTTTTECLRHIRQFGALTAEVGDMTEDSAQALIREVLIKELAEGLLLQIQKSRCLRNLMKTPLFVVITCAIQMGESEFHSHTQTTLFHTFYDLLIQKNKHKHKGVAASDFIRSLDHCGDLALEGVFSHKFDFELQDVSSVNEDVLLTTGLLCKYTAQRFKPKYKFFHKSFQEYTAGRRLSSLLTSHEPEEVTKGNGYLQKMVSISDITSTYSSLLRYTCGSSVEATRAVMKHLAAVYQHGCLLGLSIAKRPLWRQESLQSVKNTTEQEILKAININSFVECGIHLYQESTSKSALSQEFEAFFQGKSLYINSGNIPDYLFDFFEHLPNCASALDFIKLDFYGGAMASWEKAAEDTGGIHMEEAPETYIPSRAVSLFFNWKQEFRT


How the values were obtained:
[1] = molecular target: T3, T7-tagged full length Ipaf (human, UniProt Q9NPP4 1-1024); experiment: co-immunoprecipitation from 293T lysates (IP anti-Flag, blot anti-T7)
T3 construct: also called T7-Ipaf; T7-tagged Ipaf
Method: 24 hours following transfection, cells were lysed in 50 mM Tris/HCl pH 7.6, 150 mM NaCl containing 0.5% NP-40, 10 μg.ml⁻¹ leupeptin and aprotinin and 0.1 mM PMSF and clarified by centrifugation at 15,000 g for 15 min. The clarified lysates were preabsorbed on protein G-Sepharose (Pharmacia) and then incubated with anti-FLAG-M5 monoclonal antibody (Eastman Kodak Co.) for 2 hours, followed by protein G-Sepharose agarose IgG beads. Immune complexes were washed extensively in the lysis buffer and eluted by boiling in an SDS sample buffer. The eluted proteins were resolved by SDS-PAGE and detected by Western analysis with a horseradish peroxidase-conjugate T7-antibody (Novagen). GST Pull-down assays were performed as described (Ahmad et al., Cancer Res 57:615-9, 1997).
24 hours following transfection, cells were lysed and the lysates immunoprecipitated (IP) with an anti-Flag antibody. The immunoprecipitates were immunoblotted (IB) with an anti-T7 antibody. Expression of T7-Ipaf or Flag-tagged constructs was determined by immunoblotting (IB) with anti-T7 or anti-Flag antibodies, respectively. […] This association was dependent on the N-terminal CARD as deletion of this domain prevented the CARD-truncated Ipaf mutant from interacting with the full-length Ipaf. Moreover, the epitope-tagged CARD of Ipaf was able to co-immunoprecipitate the full-length protein.

[2] = molecular target: T1, T7-tagged full length Ipaf
[3] = molecular target: T2, Ipaf 1-661

Binder	binding result [1]	proteolytic activation (processing) of procaspase-1, anti-Flag immunoblot of 293T lysates [2]	proteolytic activation (processing) of procaspase-1, anti-Flag immunoblot of 293T lysates [3]
Flag-tagged CARD-deleted mutant (residues 80-1024) of Ipaf (other, also called Flag-?CARD Ipag; CARD-truncated Ipaf mutant) DYKDDDDKLFQDLNGQSLFHQTSEGDLDDLAQDLKDLYHTPSFLNFYPLGEDIDIIFNLKSTFTEPVLWRKDQHHHRVEQLTLNGLLQALQSPCIIEGESGKGKSTLLQRIAMLWGSGKCKALTKFKFVFFLRLSRAQGGLFETLCDQLLDIPGTIRKQTFMAMLLKLRQRVLFLLDGYNEFKPQNCPEIEALIKENHRFKNMVIVTTTTECLRHIRQFGALTAEVGDMTEDSAQALIREVLIKELAEGLLLQIQKSRCLRNLMKTPLFVVITCAIQMGESEFHSHTQTTLFHTFYDLLIQKNKHKHKGVAASDFIRSLDHCGDLALEGVFSHKFDFELQDVSSVNEDVLLTTGLLCKYTAQRFKPKYKFFHKSFQEYTAGRRLSSLLTSHEPEEVTKGNGYLQKMVSISDITSTYSSLLRYTCGSSVEATRAVMKHLAAVYQHGCLLGLSIAKRPLWRQESLQSVKNTTEQEILKAININSFVECGIHLYQESTSKSALSQEFEAFFQGKSLYINSGNIPDYLFDFFEHLPNCASALDFIKLDFYGGAMASWEKAAEDTGGIHMEEAPETYIPSRAVSLFFNWKQEFRTLEVTLRDFSKLNKQDIRYLGKIFSSATSLRLQIKRCAGVAGSLSLVLSTCKNIYSLMVEASPLTIEDERHITSVTNLKTLSIHDLQNQRLPGGLTDSLGNLKNLTKLIMDNIKMNEEDAIKLAEGLKNLKKMCLFHLTHLSDIGEGMDYIVKSLSSEPCDLEEIQLVSCCLSANAVKILAQNLHNLVKLSILDLSENYLEKDGNEALHELIDRMNVLEQLTALMLPWGCDVQGSLSSLLKHLEEVPQLVKLGLKNWRLTDTEIRILGAFFGKNPLKNFQQLNLAGNRVSSDGWLAFMGVFENLKQLVFFDFSTKEFLPDPALVRKLSQVLSKLTFLQEARLVGWQFDDDDLSVITGAFKLVTA	no binding	–	–
N-terminally Flag-tagged procaspase-1 (protein) DYKDDDDKMADKVLKEKRKLFIRSMGEGTINGLLDELLQTRVLNKEEMEKVKRENATVMDKTRALIDSVIPKGAQACQICITYICEEDSYLAGTLGLSADQTSGNYLNMQDSQGVLSSFPAPQAVQDNPAMPTSSGSEGNVKLCSLEEAQRIWKQKSAEIYPIMDKSSRTRLALIICNEEFDSIPRRTGAEVDITGMTMLLQNLGYSVDVKKNLTASDMTTELEAFAHRPEHKTSDSTFLVFMSHGIREGICGKKHSEQVPDILQLNAIFNMLNTKNCPSLKDKPKVIIIQACRGDSPGVVWFKDSVGVSGNLSLPTTEEFEDDAIKKAHIEKDFIAFCSSTPDNVSWRHPTMGSVFIGRLIEHMQEYACSCDVEEIFRKVRFSFEQPDGRAQMPTTERVTLTRCFYLFPGH	–	Co-expression of the LRR-truncated Ipaf mutant, but not the full-length protein, was able to induce proteolytic activation of procaspase-1	Co-expression of the LRR-truncated Ipaf mutant, but not the full-length protein, was able to induce proteolytic activation of procaspase-1
